Measurements: FireProtDB (doi:10.1006/jmbi.2001.5050)

B1: Cold shock protein CspB, P41016 (parent)
chain: MQRGKVKWFNNEKGYGFIEVEGGSDVFVHFTAIQGEGFKTLEEGQEVSFEIVQGNRGPQAANVVKL

Variants of: B1
Settings: Bacillus caldolyticus, pH 7, CD, sodium cacodylate-HCl 100 mM, reversible: yes, structure 1C9O, whole UniProt chain shown

| Variant | ddG of mutation (higher = less stable) (70 °C, Thermal, NaCl 2 M) [kcal/mol] | unfolding free energy (70 °C, Thermal, NaCl 2 M) [kcal/mol] | ddG of mutation (higher = less stable) (70 °C, Thermal) [kcal/mol] | unfolding free energy (70 °C, Thermal) [kcal/mol] | Tm (Thermal) [°C] | change of melting temperature, mutant - wild type (higher = more stable) (Thermal) [°C] | unfolding enthalpy (van 't Hoff) (Thermal) [kcal/mol] | ddG of mutation (higher = less stable) (25 °C, GdnHCl) [kcal/mol] | denaturant m value (25 °C, GdnHCl) [kcal/mol/M] | denaturant midpoint (higher = more stable) (25 °C, GdnHCl) [M] | unfolding free energy (25 °C, GdnHCl) [kcal/mol] |
| --- | --- | --- | --- | --- | --- | --- | --- | --- | --- | --- | --- |
| E21A | 0.29 | 1.91 | 0.29 | 0.79 | 75 | -1.9 | 57.8 |  |  |  |  |
| G23Q | 0.31 | 1.89 | 0.29 | 0.79 | 74.7 | -2.2 | 59.5 | 0 | 1.89 | 2.62 | 1.2 |
| Q2L | -0.29 | 2.49 | -0.55 | 1.63 | 80.9 | 4 | 57.8 | -0.41 | 1.7 | 2.95 | 1.6 |
| R3E L66E |  |  |  |  | 44.6 | -32.3 | 36.8 |  |  |  |  |
| N11S | -0.22 | 2.41 | -0.33 | 1.41 | 79.2 | 2.3 | 58.8 | 0 | 1.74 | 2.69 | 1.2 |
| E46A | 0.12 | 2.08 | 0.22 | 0.86 | 75.4 | -1.5 | 57.6 | -0.1 |  | 2.77 | 1.29 |
| G23Q S24D | 0.1 | 2.1 | 0.12 | 0.96 | 75.9 | -1 | 59.5 | -0.07 | 1.67 | 2.75 | 1.27 |
| E46A L66E | 1.39 | 0.81 |  |  | 68 | -8.9 | 51.9 | 0.84 | 1.84 | 2.2 | 0.36 |
| E46A L66A | 0.22 | 1.98 | 0.29 | 0.79 | 75 | -1.9 | 56.9 |  |  |  |  |
| S24D | -0.19 | 2.39 | -0.22 | 1.29 | 77.8 | 0.9 | 61.7 | -0.1 | 1.65 | 2.79 | 1.29 |
| V64T | 0.19 | 2.01 | 0.26 | 0.81 | 75.1 | -1.8 | 58.3 | 0.31 | 1.79 | 2.5 | 0.88 |
| R3E E21A | 1.1 | 1.1 |  |  | 60 | -16.9 | 49.2 |  |  |  |  |
| R3E E46A L66E |  |  |  |  | 50.3 | -26.6 | 40.4 |  |  |  |  |
| R3E E46A | 0.96 | 1.24 |  |  | 64.6 | -12.3 | 52.8 | 0.43 | 1.63 | 2.47 | 0.76 |
| Y15F | -0.07 | 2.27 | 0.05 | 1.03 | 76.7 | -0.2 | 56.6 | 0.1 | 1.6 | 2.69 | 1.1 |
| Q53E | 0 | 2.2 | 0.1 | 0.98 | 76.1 | -0.8 | 58.8 | -0.02 | 1.82 | 2.68 | 1.22 |
| T31S | -0.19 | 2.39 | -0.17 | 1.24 | 77.8 | 0.9 | 59.8 |  |  |  |  |
| L66E | 1.27 | 0.93 |  |  | 68.9 | -8 | 50.2 | 0.84 | 1.74 | 2.21 | 0.36 |
| L66A | 0.07 | 2.13 |  |  |  |  |  |  |  |  |  |
| R3K | 0.14 | 2.06 | 0.19 | 0.88 | 76.1 | -0.8 | 53.5 |  |  |  |  |
| R3A | 1.05 | 1.15 |  |  | 64.9 | -12 | 51.4 |  |  |  |  |
| R3L | 0.22 | 1.98 | 0.93 | 0.14 | 70.9 | -6 | 55.7 |  |  |  |  |
| R3E | 1 | 1.2 |  |  |  |  |  | 0.84 | 1.6 | 2.23 | 0.36 |
